Androgen receptor-dependent transactivation data for one molecule are collected here from patent US20080081903A1, “METHOD FOR SCREENING TRANSCRIPTIONAL COREGULATORY PROTEINS OF TRANSCRIPTION FACTORS, AND ANDROGEN RECEPTOR TRANSCRIPTIONAL COREGULATORY PROTEINS AS TARGETS FOR ANDROGEN RECEPTOR-DEPENDENT DISEASES” (NEW YORK UNIVERSITY, priority 2001, published 2008).

The test deals with T1, androgen receptor transcriptional activation (Homo sapiens, UniProt P10275).
T1 construct: The pcDNA3:hAR expression plasmid was used to produce full length human AR; expressed in transfected cells; host or cells: HeLa and PC-3 (both AR deficient)
T1 sequence (P10275 1-920): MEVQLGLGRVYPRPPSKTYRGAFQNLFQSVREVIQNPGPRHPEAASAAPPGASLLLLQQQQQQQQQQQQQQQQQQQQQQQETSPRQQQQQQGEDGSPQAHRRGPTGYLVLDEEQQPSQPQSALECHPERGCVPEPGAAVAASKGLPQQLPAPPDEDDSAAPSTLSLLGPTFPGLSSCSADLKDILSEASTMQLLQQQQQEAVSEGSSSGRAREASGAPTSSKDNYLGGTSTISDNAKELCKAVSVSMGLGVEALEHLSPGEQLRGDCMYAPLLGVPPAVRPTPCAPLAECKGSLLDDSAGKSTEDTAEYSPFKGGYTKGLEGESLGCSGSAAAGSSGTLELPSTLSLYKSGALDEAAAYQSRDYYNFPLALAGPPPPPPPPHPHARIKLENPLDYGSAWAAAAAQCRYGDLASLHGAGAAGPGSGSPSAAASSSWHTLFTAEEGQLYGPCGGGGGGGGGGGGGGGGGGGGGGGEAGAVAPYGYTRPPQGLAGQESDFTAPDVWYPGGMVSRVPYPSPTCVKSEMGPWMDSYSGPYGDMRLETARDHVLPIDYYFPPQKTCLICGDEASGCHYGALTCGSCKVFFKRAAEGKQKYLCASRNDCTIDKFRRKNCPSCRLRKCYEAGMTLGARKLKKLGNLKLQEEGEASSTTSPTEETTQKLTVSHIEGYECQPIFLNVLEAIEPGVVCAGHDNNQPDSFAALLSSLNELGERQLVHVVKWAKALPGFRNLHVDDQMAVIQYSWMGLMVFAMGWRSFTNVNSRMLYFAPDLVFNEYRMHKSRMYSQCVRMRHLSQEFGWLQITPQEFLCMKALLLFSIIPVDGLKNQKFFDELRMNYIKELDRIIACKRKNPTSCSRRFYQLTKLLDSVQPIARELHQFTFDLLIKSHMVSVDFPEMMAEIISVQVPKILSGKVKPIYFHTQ
Briefly: Transient transfection, AR-responsive luciferase reporter assay. The format is cell-based. As to conditions: overexpressed in cultured mammalian cells. From the text: The two ART-27 derivatives used in the mammalian cell culture experiments were constructed as follows: using EcoRI-XhoI, ART-27 was subcloned from pEG202:ART-27 into a pcDNA3 vector that has an N-terminal HA epitope (pCDNA3-HA) in the same reading frame as the LexA moiety in pEG202 with respect to the EcoRI site; ART-271-127 was subcloned from pEG202:ART-271-127 into pcDNA3-HA, pJG4-5:Sp183-262, pJG4-5:Sp1263-542, pJG4-5:TAF130270-700, and pJG4-5:CREB3-296 were provided by N. Tanese (New York University School of Medicine, New York). pJG4-5:SRC-1374-800 was provided by H. Samuels (New York University School of Medicine, New York). pJG4-5:GR107-237 was previously described (Hittelman et al., 1999). The pJK103 reporter plasmid, which contains a single LexA operator linked to β-galactosidase, was used in all activity assays of the LexA fusion proteins and in the modified two-hybrid assay. The pΔ4X-LALO-luciferase reporter plasmid, which contains four LexA operators upstream of a minimal Drosophila alcohol dehydrogenase promoter linked to luciferase, was used in mammalian activity assays to monitor the intrinsic transcriptional activity of the LexA fusion proteins. […]
(Reporter assays use an easily measured gene product as a stand-in for the process of interest.)

B1: ART-5: Androgen Receptor Trapped protein, SEQ ID NO:4, unknown function, represented in EST database (protein)
chain: MHNPDGSASPTADPGSELQTLGQAARRPPPPRAGHDAPRRTRPSARKPLSCFSRRPMPTREPPKTRGSRGHLHTHPPGPGPPLQGLAPRGLKTSAPRPPCQPQPGPHKAKTKKIVFEDELLSQALLGAKKPIGAIPKGHKPRPHPVPDYELKYPPVSSERERSRYVAVFQDQYGEFLELQHEVGCAQAKLRQLEALLSSLPPPQSQKEAQVAARVWREFEMKRMDPGFLDKQARCHYLKGKLRHLKTQIQKFDDQGDSEGSVYF
modifications: Human
B1: the androgen receptor-dependent transactivation entry is “increase”.
